Reference: patent US20250121076A1, “POLYPEPTIDE DRUG CONJUGATE HAVING NOVEL STRUCTURE AND APPLICATION THEREOF” (MEDSHINE DISCOVERY INC., priority 2021, published 2025)
Where a name gives a salt, the structure may show the parent alone. Starred links: 1 amine or outer side, 2 acyl side, 3 side chain; linkers in the order of their positions; H or OH if unused. Positions of bridges follow the written chain, without caps; N, C: chain ends. Non-standard residues stand in square brackets, D forms with d. Residues, ends and D or L forms follow the SMILES beside them. Chains are numbered I, II in the order given. *: point of attachment. TATA = O=C(CC[*:1])N1CN(C(=O)CC[*:2])CN(C(=O)CC[*:3])C1; Dolaproine = CO[C@@H]([C@@H]1CCCN1)[C@@H](C)C(=O)O; Dil = CC[C@H](C)[C@H](NC)[C@@H](CC(=O)O)OC; X2 = O=C(CCCC(=O)[*:2])NCCC(=O)[*:1]; PABC = O=C(OCc1ccc(N[*:1])cc1)[*:2]; X1 = C[C@@H](N*)[C@@H](O)c1ccccc1; Hyp = O=C(O)[C@@H]1C[C@@H](O)CN1; hArg = N=C(N)NCCCC[C@H](N)C(=O)O; Cit = NC(=O)NCCC[C@H](N)C(=O)O; Pen = CC(C)(S)[C@H](N)C(=O)O; NMeV = CN[C@H](C(=O)O)C(C)C; Sar = CNCC(=O)O

Key:
[1] = Pharmacokinetic analysis in Cynomolgus macaque plasma; type: in vivo, Cynomolgus macaques; conditions: cynomolgus monkey, in vivo, Cynomolgus macaques, single IV 1 mg/kg, plasma
Procedure: To test the pharmacokinetics of the compounds of the present invention in Cynomolgus macaques.
The pharmacokinetic characteristics of the compound after intravenous injection and oral administration were tested in Cynomolgus macaques according to a standard protocol. The compound of the present invention was formulated into a clear solution using 50 mM acetate buffer (pH=5) in 10% sucrose as a vehicle. Two Cynomolgus macaques were given a single intravenous injection of 1 mg/kg of the compound to be tested. Whole blood was collected at time points of 0.083, 0.25, 0.5, 1, 2, 4, 8, and 24 hours after administration to get plasma. The concentration of the compound to be tested and the concentration of its potential metabolite MMAE were analyzed by the LC-MS/MS method, and the pharmacokinetic parameters were calculated by Phoenix WinNonlin software.

Stability in whole blood = type: in vitro ADME, Cynomolgus macaques; conditions: Cynomolgus macaque whole blood, 2 μM, 37° C.
Procedure: To test the stability of the compounds of the present invention in whole blood from SD rats and Cynomolgus macaques.
The corresponding incubation plates, including T0, T10, T30, T60, T120, and T240 incubation plates, were added with a 2 μL working solution of the compound to be tested (100 μM). Three parallel wells were prepared for each sample. Then, 98 μL of blank whole blood from SD rats and Cynomolgus macaques was added to the corresponding incubation plates to which the working solution had been added. All samples were incubated in a 37° C. water bath. […] At the end of each incubation time point, the corresponding incubation plate was removed, added with stop buffer, precipitated, and centrifuged for 20 minutes. Then, 100 μL of the supernatant was diluted with 300 μL of ultrapure water, mixed uniformly, and then analyzed by the LC-MS/MS method. The concentration of the compound to be tested in the sample was semi-quantitatively determined by the liquid chromatography-tandem mass spectrometry (LC-MS/MS) method.

Human EphA2 = molecular target: T1, Human EphA2 (Homo sapiens, UniProt P29317); test: Binding capacity test to EphA2 protein (SPR, Biacore 8K)
T1 construct: purchased Sino Biological 13926-H08HD
Procedure: To detect the affinity of the compound to be tested to the target protein EphA2 using the SPR method.
• Biacore 8K (GE Healthcare). • 96-well Plate (Cat #650101, greiner bio-one) • CM5 chip (Cat #BR-1005-30, GE Healthcare) • Amine Coupling Kit (Cat #BR-1000-50, GE Healthcare) EDC NHS 1 M ethanolamine. • 10 mM sodium acetate pH 4.5 (Cat #BR-1003-50, GE Healthcare) • DMSO (Cat #D4540, Sigma) • P20 (Cat #BR-1000-54, GE Healthcare). • PBS (Cat #BR-1006-72, GE Healthcare). • EphA2 (Cat #13926-H08HD, Sino Biological)
In this experiment, the amino coupling method was used. The target protein EphA2 was directly immobilized on the CM5 chip using Biacore 8K. The compound to be tested as an analyte was then diluted to a required concentration gradient with a buffer (10 mM PBS, pH 7.4, 137 mM NaCl, 2.7 mM KCl, 5% DMSO, and 0.05% P20) for multi-cycle kinetic detection, in which each cycle is formed by 180 seconds of sample injection and 180 seconds of dissociation, and then the next cycle was performed, to obtain kinetic analysis data on the affinity of the target protein EphA2 to the compound to be tested. The final data were subjected to Kinetics fitting analysis based on a 1:1 model using Biacore Insight Evaluation Software (V 2.0.15.12933).
1) Preparation of the buffer: 10 mM PBS, pH 7.4, 137 mM NaCl, 2.7 mM KCl, 5% DMSO, and 0.05% P20.
2) Activation of the CM5 chip: The CM5 chip was activated with 400 mM EDC and 100 mM NHS at a flow rate of 10 μL/min for 420 seconds.
3) Coupling of the target protein: The target protein was diluted to 10 μg/mL with 10 mM sodium acetate (pH 4.5) and coupled at a flow rate of 10 μL/min for 284 s. The 1 #, 2 #, and 3 #channels on the chip were used in the experiment, and the coupling results were 1639.9RU, 1747.8RU, and 1702.2RU, respectively.
4) Blocking of the CM5 chip: The CM5 chip was blocked with 1 M ethanolamine at a flow rate of 10 μL/min for 420 seconds.
5) Analyte concentration: The compound to be tested was diluted with the buffer. The compound to be tested was diluted from 100 nM to 0.78 nM in a 2-fold gradient.
6) Sample injection analysis: Each concentration of the working solution of the compound to be tested corresponded to one cycle, with a flow rate of 30 μL/min for binding for 180 seconds and dissociating for 180 seconds. The last cycle was a 5% DMSO solvent correction cycle. 7) All results were subjected to kinetics fitting analysis based on a 1:1 model.
The experimental data of five effective concentrations of the compounds of the present invention were selected for Kinetics fitting analysis based on a 1:1 model using Biacore Insight Evaluation Software (V 2.0.15.12933).

T1 sequence (P29317 24-534 limits assumed): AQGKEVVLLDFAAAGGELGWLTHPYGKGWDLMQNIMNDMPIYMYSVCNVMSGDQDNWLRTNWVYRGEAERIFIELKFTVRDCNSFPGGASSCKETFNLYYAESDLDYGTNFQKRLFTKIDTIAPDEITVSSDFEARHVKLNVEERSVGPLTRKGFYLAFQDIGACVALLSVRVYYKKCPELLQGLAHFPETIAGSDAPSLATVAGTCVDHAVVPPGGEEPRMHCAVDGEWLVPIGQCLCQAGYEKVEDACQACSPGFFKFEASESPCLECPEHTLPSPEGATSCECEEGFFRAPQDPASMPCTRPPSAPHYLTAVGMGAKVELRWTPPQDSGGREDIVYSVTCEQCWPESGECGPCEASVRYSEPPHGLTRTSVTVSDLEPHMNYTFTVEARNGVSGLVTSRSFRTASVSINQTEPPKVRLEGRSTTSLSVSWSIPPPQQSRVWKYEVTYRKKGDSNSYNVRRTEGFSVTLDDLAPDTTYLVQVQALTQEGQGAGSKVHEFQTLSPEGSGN

`CC[C@H](C)[C@@H]([C@@H](CC(=O)N1CCC[C@H]1[C@H](OC)[C@@H](C)C(=O)N[C@H](C)[C@@H](O)c1ccccc1)OC)N(C)C(=O)[C@@H](NC(=O)[C@H](C(C)C)N(C)C(=O)OCc1ccc(NC(=O)[C@H](CCCNC(N)=O)NC(=O)[C@@H](NC(=O)CCCC(=O)NCCC(=O)N(C)CC(=O)N(C)CC(=O)N(C)CC(=O)N(C)CC(=O)N(C)CC(=O)N(C)CC(=O)N(C)CC(=O)N(C)CC(=O)N(C)CC(=O)N(C)CC(=O)N[C@H]2CCCCNC(=O)C[C@@H](C(=O)N[C@H]3CSCCC(=O)N4CN5CN(C4)C(=O)CCSC(C)(C)[C@@H](C(N)=O)NC(=O)[C@H](CCCCNC(=N)N)NC(=O)[C@H](Cc4c[nH]c6ccccc46)NC(=O)[C@@H](CC(=O)O)NC(=O)[C@@H]4CCCN4C(=O)[C@H](Cc4c[nH]cn4)NC(=O)[C@H](CC(C)C)NC(=O)[C@H](CSCCC5=O)NC(=O)[C@H](CC(C)C)NC(=O)[C@@H]4CCCN4C(=O)[C@H](CC(N)=O)NC(=O)[C@H](C(C)C)NC(=O)[C@H](CC(C)C)NC(=O)[C@@H]4C[C@@H](O)CN4C3=O)NC(=O)[C@H](CCCCNC(=N)N)NC2=O)C(C)C)cc1)C(C)C` [Acetate salt of PDC_8] (I: [Sar][Sar][Sar][Sar][Sar][Sar][Sar][Sar][Sar][Sar]K[hArg]DC[Hyp]LVNPLCLHP[dD]W[hArg][Pen]-NH2 / II: V[Cit][PABC][NMeV]V[Dil][Dolaproine]-X1; lactam I:11-I:13; linker I:14-I:21-I:28 via TATA; linker I:N-II:N via X2) showed an AUC(0-t) [1] of 0.651 µM·h, a C0 [1] of 2470 nM and a clearance [1] of 5.72 mL/min/kg. It also gave a half-life [1] of 18.6 min, a Vd ([1]; read-out: Vdss) of 0.12 L/kg and a half-life (Stability in whole blood) greater than 578 min. For the same compound, the Kd (Human EphA2) was 3.46 nM.
